B1: ODC ΔN 4KR (enzyme)
chain: DCHFLDEGFTAKDILDQKINEVSSSDDKDAFYVADLGDILKKHLRWLKALPRVTPFYAVKCNDSRAIVRTLAATGTGFDCASRTEIQLVQSLGVPPERIIYANPCKQVSQIRYAANNGVQMMTFDSEVELMKVARAHPKAKLVLRIATDDSKAVCRLSVKFGATLRTSRLLLERAKELNIDVVGVSFHVGSGCTDPETFVQAISDARCVFDMGAEVGFSMYLLDIGGGFPGSEDVKLKFEEITGVINPALDKYFPSDSGVRIIAEPGRYYVASAFTLAVNIIAKKIVLKEQTGSDDEDESSEQTFMYYVNDGVYGSFNCILYDHAHVKPLLQKRPKPDEKYYSSSIWGPTCDGLDRIVERCDLPEMHVGDWMLFENMGAYTVAAASTFNGFQRPTIYYVMSGPAWQLMQQFQNPDFPPEVEEQDASTLPVSCAWESGMKRHRAACASASIN
B2: His6-ODC-Ctag (human Ornithine Decarboxylase) (enzyme)
chain: NNFGNEEFDCHFLDEGFTAKDILDQKINEVSSSDDKDAFYVADLGDILKKHLRWLKALPRVTPFYAVKCNDSKAIVKTLAATGTGFDCASKTEIQLVQSLGVPPERIIYANPCKQVSQIKYAANNGVQMMTFDSEVELMKVARAHPKAKLVLRIATDDSKAVCRLSVKFGATLRTSRLLLERAKELNIDVVGVSFHVGSGCTDPETFVQAISDARCVFDMGAEVGFSMYLLDIGGGFPGSEDVKLKFEEITGVINPALDKYFPSDSGVRIIAEPGRYYVASAFTLAVNIIAKKIVLKEQTGSDDEDESSEQTFMYYVNDGVYGSFNCILYDHAHVKPLLQKRPKPDEKYYSSSIWGPTCDGLDRIVERCDLPEMHVGDWMLFENMGAYTVAAASTFNGFQRPTIYYVMSGPAWQLMQQFQ

Target: AviTag-His6-OAZ-GSY-SPM-Ctag (wt, with C175A) (human | Neisseria meningitidis …, UniProt Q9JYV5 414-657, biotin on the AviTag)
Test: SPR

| Binder | Kd [nM] | koff [s⁻¹] |
| --- | --- | --- |
| B1 | 22 | 0.0024 |
| B2 | – | 0.0028 |

Source: publication PMC7846742 (2021)
